We go through four substances from PMC3164629.

Test [1] has as its target recombinant soluble CD4 (UniProt P01730). Kind of test: SPR. For orientation: SPR reads the build-up and loss of mass on a sensor chip optically.
The target in test [2] is human mAb 4E10 (human). Nature of the test: SPR.
Chain of human mAb 4E10 (human) (light, as listed by the source, chain 2 of 2, other chains not shown): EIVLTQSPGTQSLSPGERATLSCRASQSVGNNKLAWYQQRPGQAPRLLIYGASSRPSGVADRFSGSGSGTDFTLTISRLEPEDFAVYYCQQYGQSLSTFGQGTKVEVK

For the substance “CON-S gp140CFI Env, natively deglycosylated with PNGase F 500 U per µg”, the Kd in test [1] was determined as 9.4 nM. In test [2], the fold enhancement of Kd against WT glycosylated CON-S gp140 amounted to 7 fold.

On to “HIV-1 JRFL gp140CF Env, WT glycosylated (domain or fragment)”, for which, in test [1], the Kd was 5.7 nM.

With “HIV-1 JRFL gp140CF Env, natively deglycosylated with PNGase F 500 U per µg (domain or fragment)”, the Kd in test [1] worked out at 35.3 nM.

Take “group M consensus gp140 Env, CON-S gp140CFI, WT glycosylated”: the Kd in test [1] was 7.4 nM.

For orientation: Kd means the constant that tells how readily two partners part at equilibrium.
